Measurements from the supplement of paper PMC12458215.
± gives the uncertainty stated by the source.

System: HEK293T
Test: plasma membrane surface immunostaining intensity (anti-HA, deep receptor scanning) (arbitrary fluorescence units); higher = higher plasma membrane expression

Sequence	plasma membrane surface immunostaining intensity (GPCR class: A)	plasma membrane surface immunostaining intensity (GPCR class: A (Olfactory))	other results
MRPPSPLPARWLCVLAGALAWALGPAGGQAARLQEECDYVQMIEVQHKQCLEEAQLENETIGCSKMWDNLTCWPATPRGQVVVLACPLIFKLFSSIQGRNVSRSCTDEGWTHLEPGPYPIACGLDDKAASLDEQQTMFYGSVKTGYTIGYGLSLATLLVATAILSLFRKLHCTRNYIHMHLFISFILRAAAVFIKDLALFDSGESDQCSEGSVGCKAAMVFFQYCVMANFFWLLVEGLYLYTLLAVSFFSERKYFWGYILIGWGVPSTFTMVWTIARIHFEDYGCWDTINSSLWWIIKGPILTSILVNFILFICIIRILLQKLRPPDIRKSDSSPYSRLARSTLLLIPLFGVHYIMFAFFPDNFKPEVKMVFELVVGSFQGFVVAILYCFLNGEVQAELRRKWRRWHLQGVLGWNPKYRHPSGGSNGATCSTQVSMLTRVSPGARRSSSFQAEVSLV [VIPR1]			plasma membrane surface immunostaining intensity (GPCR class: B): 5730 ± 200
MPPSISAFQAAYIGIEVLIALVSVPGNVLVIWAVKVNQALRDATFCFIVSLAVADVAVGALVIPLAILINIGPQTYFHTCLMVACPVLILTQSSILALLAIAVDRYLRVKIPLRYKMVVTPRRAAVAIAGCWILSFVVGLTPMFGWNNLSAVERAWAANGSMGEPVIKCEFEKVISMEYMVYFNFFVWVLPPLLLMVLIYLEVFYLIRKQLNKKVSASSGDPQKYYGKELKIAKSLALILFLFALSWLPLHILNCITLFCPSCHKPSILTYIAIFLTHGNSAMNPIVYAFRIQKFRVTFLKIWNDHFRCQPAPPIDEDLPEERPDD [ADORA1]	6412 ± 62		
MNPTDIADTTLDESIYSNYYLYESIPKPCTKEGIKAFGELFLPPLYSLVFVFGLLGNSVVVLVLFKYKRLRSMTDVYLLNLAISDLLFVFSLPFWGYYAADQWVFGLGLCKMISWMYLVGFYSGIFFVMLMSIDRYLAIVHAVFSLRARTLTYGVITSLATWSVAVFASLPGFLFSTCYTERNHTYCKTKYSLNSTTWKVLSSLEINILGLVIPLGIMLFCYSMIIRTLQHCKNEKKNKAVKMIFAVVVLFLGFWTPYNIVLFLETLVELEVLQDCTFERYLDYAIQATETLAFVHCCLNPIIYFFLGEKFRKYILQLFKTCRGLFVLCQYCGLLQIYSADTPSSSYTQSTMDHDLHDAL [CCR4]	186 ± 14		
MENGSYTSYFILLGLFNHTRAHQVLFMMVLSIVLTSLFGNSLMILLIHWDHRLHTPMYFLLSQLSLMDVMLVSTTVPKMAADYLTGSKAISRAGCGAQIFFLPTLGGGECFLLAAMAYDRYAAVCHPLRYPTLMSWQLCLRMNLSCWLLGAADGLLQAVATLSFPYCGAHEIDHFFCETPVLVRLACADTSVFENAMYICCVLMLLVPFSLILSSYGLILAAVLHMRSTEARKKAFATCSSHVAVVGLFYGAAIFTYMRPKSHRSTNHDKVVSAFYTMFTPLLNPLIYSVKNSEVKGALTRCMGRCVALSRE [OR2T8]		132 ± 16	
MTTSLDTVETFGTTSYYDDVGLLCEKADTRALMAQFVPPLYSLVFTVGLLGNVVVVMILIKYRRLRIMTNIYLLNLAISDLLFLVTLPFWIHYVRGHNWVFGHGMCKLLSGFYHTGLYSEIFFIILLTIDRYLAIVHAVFALRARTVTFGVITSIVTWGLAVLAALPEFIFYETEELFEETLCSALYPEDTVYSWRHFHTLRMTIFCLVLPLLVMAICYTGIIKTLLRCPSKKKYKAIRLIFVIMAVFFIFWTPYNVAILLSSYQSILFGNDCERSKHLDLVMLVTEVIAYSHCCMNPVIYAFVGERFRKYLRHFFHRHLLMHLGRYIPFLPSEKLERTSSVSPSTAEPELSIVF [CCR3]	391 ± 99		
MATELDKIFLILAIAEFIISMLGNVFIGLVNCSEGIKNQKVFSADFILTCLAISTIGQLLVILFDSFLVGLASHLYTTYRLGKTVIMLWHMTNHLTTWLATCLSIFYFFKIAHFPHSLFLWLRWRMNGMIVMLLILSLFLLIFDSLVLEIFIDISLNIIDKSNLTLYLDESKTLYDKLSILKTLLSLTSFIPFSLFLTSLLFLFLSLVRHTRNLKLSSLGSRDSSTEAHRRAMKMVMSFLFLFIVHFFSLQVANWIFFMLWNNKCIKFVMLALNAFPSCHSFILILGNSKLQQTAVRLLWHLRNYTKTPNPLPL [TAS2R42]			plasma membrane surface immunostaining intensity (GPCR class: Taste): 114 ± 7.7
MFRQEQPLAEGSFAPMGSLQPDAGNASWNGTEAPGGGARATPYSLQVTLTLVCLAGLLMLLTVFGNVLVIIAVFTSRALKAPQNLFLVSLASADILVATLVIPFSLANEVMGYWYFGKAWCEIYLALDVLFCTSSIVHLCAISLDRYWSITQAIEYNLKRTPRRIKAIIITVWVISAVISFPPLISIEKKGGGGGPQPAEPRCEINDQKWYVISSCIGSFFAPCLIMILVYVRIYQIAKRRTRVPPSRRGPDAVAAPPGGTERRPNGLGPERSAGPGGAEAEPLPTQLNGAPGEPAPAGPRDTDALDLEESSSSDHAERPPGPRRPERGPRGKGKARASQVKPGDSLPRRGPGATGIGTPAAGPGEERVGAAKASRWRGRQNREKRFTFVLAVVIGVFVVCWFPFFFTYTLTAVGCSVPRTLFKFFFWFGYCNSSLNPVIYTIFNHDFRRAFKKILCRGDRKRIV [ADRA2A]	2600 ± 560		
MQPYTKNWTQVTEFVMMGFAGIHEAHLLFFILFLTMYLFTLVENLAIILVVGLDHRLRRPMYFFLTHLSCLEIWYTSVTVPKMLAGFIGVDGGKNISYADCLSQLFIFTFLGATECFLLAAMAYDRYVAICMPLHYGAFVSWGTCIRLAAACWLVGFLTPILPIYLLSQLTFYGPNVIDHFSCDASPLLALSCSDVTWKETVDFLVSLAVLLASSMVIAVSYGNIVWTLLHIRSAAERWKAFSTCAAHLTVVSLFYGTLFFMYVQTKVTSSINFNKVVSVFYSVVTPMLNPLIYSLRNKEVKGALGRVFSLNFWKGQ [OR6Q1]		392 ± 120	
MTEFHLQSQMPSIRLIFRRLSLGRIKPSQSPRCSTSFMVVPSFSIAEHWRRMKGANLSQGMEFELLGLTTDPQLQRLLFVVFLGMYTATLLGNLVMFLLIHVSATLHTPMYSLLKSLSFLDFCYSSTVVPQTLVNFLAKRKVISYFGCMTQMFFYAGFATSECYLIAAMAYDRYAAICNPLLYSTIMSPEVCASLIVGSYSAGFLNSLIHTGCIFSLKFCGAHVVTHFFCDGPPILSLSCVDTSLCEILLFIFAGFNLLSCTLTILISYFLILNTILKMSSAQGRFKAFSTCASHLTAICLFFGTTLFMYLRPRSSYSLTQDRTVAVIYTVVIPVLNPLMYSLRNKDVKKALIKVWGRKTME [OR5AU1]		419 ± 110	
MAERNYTVVTEFFLTAFTEHLQWRVPLFLIFLSFYLATMLGNTGMILLIRGDRRLHTPMYFFLSHLSLVDICYSSAIIPQMLAVLWEHGTTISQARCAAQFFLFTFFASIDCYLLAIMAYDRYTAVCQPLLYVTIITEKARWGLVTGAYVAGFFSAFVRTVTAFTLSFCGNNEINFIFCDLPPLLKLSCGDSYTQEVVIIVFALFVMPACILVILVSYLFIIVAILQIHSAGGRAKTFSTCASHLTAVALFFGTLIFMYLRDNTGQSSEGDRVVSVLYTVVTPMLNPLIYSLRNKEVKEATRKALSKSKPARRP [OR9Q2]		188 ± 71	
MKETRGYGGDAPFCTRLNHSYTGMWAPERSAEARGNLTRPPGSGEDCGSVSVAFPITMLLTGFVGNALAMLLVSRSYRRRESKRKKSFLLCIGWLALTDLVGQLLTTPVVIVVYLSKQRWEHIDPSGRLCTFFGLTMTVFGLSSLFIASAMAVERALAIRAPHWYASHMKTRATRAVLLGVWLAVLAFALLPVLGVGQYTVQWPGTWCFISTGRGGNGTSSSHNWGNLFFASAFAFLGLLALTVTFSCNLATIKALVSRCRAKATASQSSAQWGRITTETAIQLMGIMCVLSVCWSPLLIMMLKMIFNQTSVEHCKTHTEKQKECNFFLIAVRLASLNQILDPWVYLLLRKILLRKFCQIRYHTNNYASSSTSLPCQCSSTLMWSDHLER [PTGER3]	684 ± 110		
MWNATPSEEPGFNLTLADLDWDASPGNDSLGDELLQLFPAPLLAGVTATCVALFVVGIAGNLLTMLVVSRFRELRTTTNLYLSSMAFSDLLIFLCMPLDLVRLWQYRPWNFGDLLCKLFQFVSESCTYATVLTITALSVERYFAICFPLRAKVVVTKGRVKLVIFVIWAVAFCSAGPIFVLVGVEHENGTDPWDTNECRPTEFAVRSGLLTVMVWVSSIFFFLPVFCLTVLYSLIGRKLWRRRRGDAVVGASLRDQNHKQTVKMLAVVVFAFILCWLPFHVGRYLFSKSFEPGSLEIAQISQYCNLVSFVLFYLSAAINPILYNIMSKKYRVAVFRLLGFEPFSQRKLSTLKDESSRAWTESSINT [GHSR]	1480 ± 520		
